Measurements published in patent publication US20230131727A1 (Janssen / Centocor, published 2023).

B1: PSMB1154 conjugated to maleimide-PEG4-vcPAB-MMAF (ADC) (antibody, human IgG1, lambda, V domains shown)
VH: EVQLVESGGGEVQPGRSLRLTCAVSGFTLSRYGMHWVRQAPGKGLEWAALISYDGSNRYYADSVKGRFTISRDNSKNTVFLQMNSLRAEDTAVYYCARERESSGWFEGYFDYWGQGTTVTVSS
VL: QLVLTQPPSVSVAPGQTARITCGGNNIGSKSVHWYQQKPGQAPVLVVYDNSDRPSGIPERFSGSNSGNTATLTISRVEVGDEADYYCQVWDSSSDHVVFGGGTKLTVLG
modifications: reduced cysteines carry maleimide-PEG4-vcPAB-MMAF or N-ethyl maleimide; sites not given
B2: PSMB1154 conjugated to MC-GGFG-DX8951 (ADC) (antibody, human IgG1, lambda, DAR 8, V domains shown)
VH: B1 VH
VL: B1 VL
modifications: reduced cysteines carry MC-GGFG-DX8951; DAR 8.0
B3: PSMB1156 conjugated to maleimide-PEG4-vcPAB-MMAF (ADC) (antibody, human IgG1, lambda, V domains shown)
VH: EVQLVESGGGVVQPGRSLRLSCAASGFTFTSYGMHWVRQAPGKGLEWVAVISYDGSNKYYADSVKGRFTISRDNSKNTLYLQMNSLRAEDTAVYYCAREHYDSSGYYHGYYGMDVWGQGTTVTVSS
VL: not shown
modifications: reduced cysteines carry maleimide-PEG4-vcPAB-MMAF or N-ethyl maleimide; sites not given
B4: PSMB1156 conjugated to MC-GGFG-DX8951 (ADC) (antibody, human IgG1, lambda, DAR 8, V domains shown)
VH: B3 VH
VL: not shown
modifications: reduced cysteines carry MC-GGFG-DX8951; DAR 8.0
B5: PSMB1183 conjugated to MC-GGFG-DX8951 (ADC) (antibody, human IgG1, lambda, DAR 8, V domains shown)
VH: QVQLQESGPGLVKSSETLSLTCTVSGGSISSYYWNWIRQPAGKGLEWIGRIYSSGNTDYNPSLKSRVTMSVDTSKNQFSLKLISVTAADTAVYYCARGRGANVGLFDYWGQGTLVTVSS
VL: QSALTQPPSVSGAPGQRVTISCTGSNSNIGANYDVHWYQHLPGTAPKLLIYGNINRPLGVPDRFSGSRSGTSASLAITGLQAEDEADYYCQSYDFSLSGSVFGVGTKLTVLG
modifications: reduced cysteines carry MC-GGFG-DX8951; DAR 8.0
B6: PSMB1157 conjugated to maleimide-PEG4-vcPAB-MMAF (ADC) (antibody, human IgG1, lambda, V domains shown)
VH: EVQLVESGGGVVQPGRSLRLSCAASVRTFSGYGMHWVRQVPGKGLEWVAVISYDGSNRYYADSVKGRFTISRDNSKNTLYLQMNSLRTEDTAVYYCARDGNWGSLDLYFDLWGRGTLVTVSS
VL: QSVLTQPPSVSGAPGQRVTISCTGSSSNIGADYDVHWYQQLPGTAPKLLIYVNNNRPSGVPDRFSGSRSGTSASLAITGLQADDEADYYCQSYDNTLSGVVFGGGTKLTVLG
modifications: reduced cysteines carry maleimide-PEG4-vcPAB-MMAF or N-ethyl maleimide; sites not given
B7: PSMB1157 conjugated to MC-GGFG-DX8951 (ADC) (antibody, human IgG1, lambda, DAR 8, V domains shown)
VH: B6 VH
VL: B6 VL
modifications: reduced cysteines carry MC-GGFG-DX8951; DAR 8.0
B8: PSMB1183 conjugated to maleimide-PEG4-vcPAB-MMAF (ADC) (antibody, human IgG1, lambda, V domains shown)
VH: B5 VH
VL: B5 VL
modifications: reduced cysteines carry maleimide-PEG4-vcPAB-MMAF or N-ethyl maleimide; sites not given

target: T1, human PSMA (prostate-specific membrane antigen) on cells (human, UniProt Q04609 1-750); assay: cell-based or functional assay
T1 sequence (Q04609 whole entry): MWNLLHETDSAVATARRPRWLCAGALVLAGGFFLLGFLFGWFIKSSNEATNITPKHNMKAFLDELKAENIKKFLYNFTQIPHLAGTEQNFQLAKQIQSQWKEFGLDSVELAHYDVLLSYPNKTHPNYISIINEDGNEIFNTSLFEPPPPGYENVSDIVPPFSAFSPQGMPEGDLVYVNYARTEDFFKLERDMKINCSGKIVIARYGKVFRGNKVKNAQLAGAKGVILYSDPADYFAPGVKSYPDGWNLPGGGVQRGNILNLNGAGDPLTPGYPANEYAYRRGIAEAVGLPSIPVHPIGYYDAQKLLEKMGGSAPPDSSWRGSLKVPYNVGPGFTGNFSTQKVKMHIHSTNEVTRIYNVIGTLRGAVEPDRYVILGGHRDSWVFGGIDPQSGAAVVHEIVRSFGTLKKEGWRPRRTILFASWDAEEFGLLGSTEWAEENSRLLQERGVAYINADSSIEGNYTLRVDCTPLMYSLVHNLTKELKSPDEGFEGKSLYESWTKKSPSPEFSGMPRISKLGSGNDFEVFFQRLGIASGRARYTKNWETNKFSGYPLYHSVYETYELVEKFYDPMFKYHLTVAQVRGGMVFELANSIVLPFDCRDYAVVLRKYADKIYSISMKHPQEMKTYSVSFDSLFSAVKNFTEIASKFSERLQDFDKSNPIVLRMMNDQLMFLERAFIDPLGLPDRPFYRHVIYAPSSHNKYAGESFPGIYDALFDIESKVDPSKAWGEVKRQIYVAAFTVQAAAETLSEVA

| MMAF IC25 (nM), 22RV1 cells | DX8951 IC50 (nM), 22RV1 cells | Binder |
| --- | --- | --- |
| 0.1 nM |  | B1 |
|  | 0.8 nM | B2 |
| 0.9 nM |  | B3 |
|  | 1.4 nM | B4 |
|  | 0.7 nM | B5 |
| 0.4 nM |  | B6 |
|  | 2.2 nM | B7 |

target: T1, human PSMA (prostate-specific membrane …); assay: cell-based or functional assay; remark: another data set of the same source

| C4-2B IC50 | Binder |
| --- | --- |
| 0.03 nM | B1 |
| 0.04 nM | B3 |
| 0.03 nM | B8 |
| 0.03 nM | B6 |
